Experiments:
[1] = target: T1, Impα3 (Homo sapiens, UniProt O00629); experiment: Fluorescence titration of PADI4 with Impα3; assay type: binding; settings: fluorescence at 330 nm; 3 µM PADI4, 0–25 µM importin; 20 mM Tris pH 7.5, 5 mM TCEP, 150 mM NaCl, 5% glycerol, 25 °C; titration repeated three times; ± fitting error
T1 construct: made in house
T1 sequence (O00629 1-521): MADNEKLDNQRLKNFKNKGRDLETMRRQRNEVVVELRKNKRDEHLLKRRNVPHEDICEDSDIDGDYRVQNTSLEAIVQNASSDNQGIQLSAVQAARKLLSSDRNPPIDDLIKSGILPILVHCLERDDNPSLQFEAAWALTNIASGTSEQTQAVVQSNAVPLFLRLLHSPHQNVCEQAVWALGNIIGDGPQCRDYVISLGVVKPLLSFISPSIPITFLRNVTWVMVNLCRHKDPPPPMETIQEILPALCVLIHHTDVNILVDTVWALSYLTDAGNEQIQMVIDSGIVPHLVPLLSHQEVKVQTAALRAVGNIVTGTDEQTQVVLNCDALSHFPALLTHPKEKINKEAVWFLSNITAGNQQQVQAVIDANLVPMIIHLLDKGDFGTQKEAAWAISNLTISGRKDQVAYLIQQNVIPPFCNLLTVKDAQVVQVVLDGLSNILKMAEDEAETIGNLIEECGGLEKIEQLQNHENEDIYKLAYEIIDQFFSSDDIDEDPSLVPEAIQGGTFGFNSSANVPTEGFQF
Method: (§1) For the titration between either Impα3 or ΔImpα3 and intact PADI4, increasing amounts of the corresponding importin species, in the concentration range 0–25 µM, were added to a solution with a fixed concentration of intact PADI4 (3 µM). Experiments were carried out in 20 mM Tris buffer (pH 7.5), 5 mM TCEP, 150 mM NaCl, and 5% glycerol at 25 °C (the storage buffer of PADI4). The experimental setup was the same as in the steady-state fluorescence experiments. Blank corrections containing the amount of each importin species were subtracted. Inner-filter effects were corrected. Each titration (Impα3 with PADI4 or ΔImpα3 with PADI4) was repeated three times, using new samples. In the three cases, the variations in the results were lower than 10%.
(§2) Handling and preparation of samples were the same described in Section 2.4.1. The dissociation constant of the corresponding complex, Kd, was calculated by fitting the binding isotherm to the general binding model, explicitly considering ligand depletion. […] Fitting to Equation (1) was carried out using KaleidaGraph (Synergy software, Reading, PA, USA).

[2] = target: ΔImpα3; experiment: Fluorescence titration of PADI4 with ΔImpα3; assay type: binding, human; settings: fluorescence at 330 nm; 3 µM PADI4, 0–25 µM importin; 20 mM Tris pH 7.5, 5 mM TCEP, 150 mM NaCl, 5% glycerol, 25 °C; titration repeated three times; ± fitting error
Method: as §1, §2

[3] = target: T1, Impα3; experiment: Steady-state fluorescence, complex versus addition spectrum, Impα3; assay type: binding; settings: 20 µM PADI4 or peptide, 2 µM Impα3; 50 mM sodium phosphate pH 7.0, 25 °C; excitation 280 or 295 nm; triplicates
Method: Spectra were collected on a Cary Varian spectrofluorometer (Agilent, Santa Clara, CA, USA), interfaced with a Peltier unit. Following the standard protocols used in our laboratories, the samples were prepared the day before and left overnight at 5 °C; before experiments, samples were left for 1 h at 25 °C, where experiments were acquired. A 1 cm pathlength quartz cell (Hellma, Kruibeke, Belgium) was used. The concentration of PADI4 or NLS1/2-PADI4 peptides was 20 µM, and that of each importin species was 2 µM. Samples containing the corresponding isolated peptides, the isolated PADI4, the isolated corresponding importin species, and the corresponding mixtures (at the concentrations indicated above) were prepared. Experiments were performed with samples in 50 mM sodium phosphate buffer, pH 7.0. Fluorescence experiments were repeated in triplicates with newly prepared samples. Variations of results among the experiments were lower than 5%.
Polypeptide samples were excited either at 280 or 295 nm (although NLS2-PADI4 has only a single […]). The other experimental parameters used in the experiments have been described elsewhere. Appropriate blank corrections were made in all spectra.

[4] = target: T1, Impα3; experiment: Far-UV CD, complex versus addition spectrum, Impα3; assay type: binding; settings: 25 °C; average of six scans
Excerpt: Far-UV CD spectra were collected on a Jasco J810 spectropolarimeter (Jasco, Tokyo, Japan) interfaced with a Peltier unit. The instrument was periodically calibrated with (+)-10-camphorsulfonic acid. A cell of path length 0.1 cm was used (Hellma, Kruibeke, Belgium). All spectra were corrected by subtracting the corresponding baseline. Concentration of each polypeptide (importin species and either NLS1/2-PADI4 or PADI4) and the buffers were the same used in the fluorescence experiments (Section 2.4).
Isothermal wavelength spectra of each isolated macromolecule and that of the complex were acquired as an average of six scans, at a scan speed of 50 nm/min, with a response time of 2 s and a bandwidth of 1 nm. Handling and preparation of samples were the same described in Section 2.4.1.

[5] = target: T1, Impα3; experiment: Isothermal titration calorimetry (ITC), Impα3; assay type: binding
Method: (§3) Calorimetric titrations for testing the interaction of PADI4, as well as for the interaction of NLS1/2-PADI4 peptides, with both importins, Impα3 and ΔImpα3, were carried out in an Auto-iTC200 automated high-sensitivity calorimeter (MicroCal, Malvern-Panalytical, Malvern, UK). Experiments were performed in 20 mM Tris buffer (pH 7.5), 5 mM TCEP, 150 mM NaCl, and 5% glycerol at 25 °C. PADI4 or the peptide solution (100 μM) in the injection syringe was titrated into the importin solution (10 μM) in the calorimetric cell. The remaining experimental and processing details have been described previously. Due to the presence of glycerol in solution, background injection (included as an adjustable parameter in data fitting) was rather large. The data analysis was conducted in Origin 7.0 (OriginLab, Northampton, MA, USA) with user-defined fitting functions.

[6] = tested on: ΔImpα3; experiment: Isothermal titration calorimetry (ITC), ΔImpα3; assay type: binding, human
Method: as §3

[7] = Impα3, pH 7.5, 25 °C, 95% confidence interval in parentheses

Question: Which Kd [1] does the source give for “PADI4: human peptidyl-arginine deiminase 4, intact protein, purified as previously described” here?
Answer: 3.9 ± 0.8 µM

Question: And the Kd [2]?
Answer: 6 ± 1 µM

Question: And the “change in fluorescence spectrum of complex versus addition spectrum” value [3]?
Answer: a variation in the fluorescence intensity

Question: And the “change in far-UV CD spectrum of complex versus addition spectrum” value [4]?
Answer: the addition spectrum was not very different from that of the complex

Question: And the ΔG ([5]; Impα3, pH 7.5, 25 °C)?
Answer: -7.3 kcal/mol

Question: What about the “n (binding stoichiometry or percentage of binding-competent protein)” value [5, 7] of the same substance?
Answer: 0.97 (0.94, 1.00)

Question: What about the “ΔH (binding enthalpy)” value [5, 7] of the same substance?
Answer: −65.5 (−72.0, −60.5) kcal/mol

Question: What about the “Ka (association constant)” value ([5]; PADI4 or peptide (100 μM) titrated into Impα3 (10 μM), 20 mM Tris pH 7.5, 5 mM TCEP, 150 mM NaCl, 5% glycerol, 25 °C, 95% confidence interval in parentheses) of the same substance?
Answer: 2.1 (1.7, 2.5) 10^5 M^−1

Question: What about the Kd ([5]; PADI4 or peptide (100 μM) titrated into Impα3 (10 μM), 20 mM Tris pH 7.5, 5 mM TCEP, 150 mM NaCl, 5% glycerol, 25 °C, 95% confidence interval in parentheses, read-out: Kd (dissociation constant)) of the same substance?
Answer: 4.8 µM

Question: And the “Ka (association constant)” value ([6]; PADI4 or peptide (100 μM) titrated into ΔImpα3 (10 μM), 20 mM Tris pH 7.5, 5 mM TCEP, 150 mM NaCl, 5% glycerol, 25 °C, 95% confidence interval in parentheses)?
Answer: 7.8 (7.3, 8.5) 10^5 M^−1

Question: And the Kd ([6]; PADI4 or peptide (100 μM) titrated into ΔImpα3 (10 μM), 20 mM Tris pH 7.5, 5 mM TCEP, 150 mM NaCl, 5% glycerol, 25 °C, 95% confidence interval in parentheses, read-out: Kd (dissociation constant))?
Answer: 1.3 µM

Question: And the “-TΔS” value ([6]; ΔImpα3, pH 7.5, 25 °C)?
Answer: -30.4 kcal/mol

Question: What about the ΔG ([6]; ΔImpα3, pH 7.5, 25 °C) of the same substance?
Answer: -8.0 kcal/mol
